{"source": "patent US11278600B2", "about": "“Human alpha-galactosidase variants” (Codexis, Inc., priority 2014, dated 2022)", "molecules": {"B1": {"name": "446 (protein)", "chain": "LDNGLARTPTMGWLHWERFMCNLDCQEEPDSCISEKLFMEMAERMVSEGWKDAGYEYLCIDDCWMAPQRDSEGRLQADPQRFPHGIRQLANYVHSKGLKLGIYADVGNKTCAGFPGSFGYYDIDAQTFADWGVDLLKFDGCYCDSLENLADGYKHMSLALNRTGRSIVYSCEWPLYMWPFQKPNYTEIRQYCNHWRNFADIDDSWKSIKSILDWTSRNQERIVDVAGPGGWNDPDMLVIGNFGLSWDQQVTQMALWAIAAAPLFMSNDLRHISPQAKALLQDKDVIAINQDPLGKQGYQLRKGDNFEVWERPLSGDAWAVAIINRQEIGGPRSYTIPVASLGKGVACNPACFITQLLPVKRQLGFYNWTSRLKSHINPTGTVLLQLENTMQMSLKDLL", "modifications": "Synthetic Polypeptide sequence of Variant No. 446 of mature Human GLA"}, "B2": {"name": "456 (protein)", "chain": "B1 chain with A259M, T389M", "modifications": "Synthetic Polypeptide sequence of Variant No. 456 of mature Human GLA"}, "B3": {"name": "452 (protein)", "chain": "B1 chain with A259M, H271R", "modifications": "Synthetic Polypeptide sequence of Variant No. 452 of mature Human GLA"}, "B4": {"name": "459 (protein)", "chain": "B1 chain with A259M, M390H", "modifications": "Synthetic Polypeptide sequence of Variant No. 459 of mature Human GLA"}, "B5": {"name": "366 (protein)", "chain": "B1 chain with S47V, A259M", "modifications": "Synthetic Polypeptide sequence of Variant No. 366 of mature Human GLA"}, "B6": {"name": "367 (protein)", "chain": "B1 chain with M39R, A259M", "modifications": "Synthetic Polypeptide sequence of Variant No. 367 of mature Human GLA"}, "B7": {"name": "453 (protein)", "chain": "B1 chain with A259M, R270L", "modifications": "Synthetic Polypeptide sequence of Variant No. 453 of mature Human GLA"}, "B8": {"name": "451 (protein)", "chain": "B1 chain with A259V", "modifications": "Synthetic Polypeptide sequence of Variant No. 451 of mature Human GLA"}, "B9": {"name": "449 (protein)", "chain": "B1 chain with L255T, A259M", "modifications": "Synthetic Polypeptide sequence of Variant No. 449 of mature Human GLA"}, "B10": {"name": "455 (protein)", "chain": "B1 chain with A259M, M392D", "modifications": "Synthetic Polypeptide sequence of Variant No. 455 of mature Human GLA"}, "B11": {"name": "447 (protein)", "chain": "B1 chain with A259M, L263W", "modifications": "Synthetic Polypeptide sequence of Variant No. 447 of mature Human GLA"}, "B12": {"name": "448 (protein)", "chain": "B1 chain with A259M, R270Q", "modifications": "Synthetic Polypeptide sequence of Variant No. 448 of mature Human GLA"}, "B13": {"name": "450 (protein)", "chain": "B1 chain with I258M, A259M", "modifications": "Synthetic Polypeptide sequence of Variant No. 450 of mature Human GLA"}, "B14": {"name": "454 (protein)", "chain": "B1 chain with A259M, M390P", "modifications": "Synthetic Polypeptide sequence of Variant No. 454 of mature Human GLA"}, "B15": {"name": "457 (protein)", "chain": "B1 chain with A259M, M392A", "modifications": "Synthetic Polypeptide sequence of Variant No. 457 of mature Human GLA"}}, "note": "Positions count from the first letter of the chain named."}
{"test": "HTP-analysis of supernatants pretreated with base (MUGal hydrolysis)", "assay_type": "biochemical", "conditions": "activity of the variant/activity of Rd4BB (SEQ ID NO: 15); challenge at pH 9.65", "method_in_brief": "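GLA variants were secreted by transformed INVSc1 yeast grown 66-84 h at 30° C. Supernatants were exposed to neutral-to-basic buffers (pH 7.0-9.7) at 37° C for 1-18 h, then assayed with MUGal in acidic citrate/McIlvaine buffer, with fluorescence read after quenching.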"}
{"molecule": "B1", "Relative Activity of GLA Variants After Challenge at pH 9.65": "− (<0.5 relative activity over Rd4BB (SEQ ID NO: 15))"}
{"molecule": "B2", "Relative Activity of GLA Variants After Challenge at pH 9.65": "+ (0.5 to 1.5 relative activity over Rd4BB (SEQ ID NO: 15))"}
{"molecule": "B3", "Relative Activity of GLA Variants After Challenge at pH 9.65": "+ (0.5 to 1.5 relative activity over Rd4BB (SEQ ID NO: 15))"}
{"molecule": "B4", "Relative Activity of GLA Variants After Challenge at pH 9.65": "+ (0.5 to 1.5 relative activity over Rd4BB (SEQ ID NO: 15))"}
{"molecule": "B5", "Relative Activity of GLA Variants After Challenge at pH 9.65": "+ (0.5 to 1.5 relative activity over Rd4BB (SEQ ID NO: 15))"}
{"molecule": "B6", "Relative Activity of GLA Variants After Challenge at pH 9.65": "− (<0.5 relative activity over Rd4BB (SEQ ID NO: 15))"}
{"molecule": "B7", "Relative Activity of GLA Variants After Challenge at pH 9.65": "− (<0.5 relative activity over Rd4BB (SEQ ID NO: 15))"}
{"molecule": "B8", "Relative Activity of GLA Variants After Challenge at pH 9.65": "− (<0.5 relative activity over Rd4BB (SEQ ID NO: 15))"}
{"molecule": "B9", "Relative Activity of GLA Variants After Challenge at pH 9.65": "− (<0.5 relative activity over Rd4BB (SEQ ID NO: 15))"}
{"molecule": "B10", "Relative Activity of GLA Variants After Challenge at pH 9.65": "+ (0.5 to 1.5 relative activity over Rd4BB (SEQ ID NO: 15))"}
{"molecule": "B11", "Relative Activity of GLA Variants After Challenge at pH 9.65": "− (<0.5 relative activity over Rd4BB (SEQ ID NO: 15))"}
{"molecule": "B12", "Relative Activity of GLA Variants After Challenge at pH 9.65": "− (<0.5 relative activity over Rd4BB (SEQ ID NO: 15))"}
{"molecule": "B13", "Relative Activity of GLA Variants After Challenge at pH 9.65": "− (<0.5 relative activity over Rd4BB (SEQ ID NO: 15))"}
{"molecule": "B14", "Relative Activity of GLA Variants After Challenge at pH 9.65": "+ (0.5 to 1.5 relative activity over Rd4BB (SEQ ID NO: 15))"}
{"molecule": "B15", "Relative Activity of GLA Variants After Challenge at pH 9.65": "+ (0.5 to 1.5 relative activity over Rd4BB (SEQ ID NO: 15))"}
{"test": "HTP-analysis of supernatants pretreated with acid (MUGal hydrolysis)", "assay_type": "biochemical", "conditions": "activity of the variant/activity of Rd4BB (SEQ ID NO: 15); challenge at pH 3.7", "method_in_brief": "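Supernatants from INVSc1 yeast secreting GLA variants were challenged at 37° C. for 1-3 h in McIlvaine buffer at pH 3.3-4.3. Residual activity was then measured on 4 mM MUGal substrate stock at pH 4.8 with citrate buffer pH 4.3, over 30-180 min at 37° C. Reactions were quenched with sodium carbonate and read by fluorescence (Ex 355/Em 448 nm).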"}
{"molecule": "B1", "Relative Activity of GLA Variants After Challenge at pH 3.7": "− (<0.5 relative activity over Rd4BB (SEQ ID NO: 15))"}
{"molecule": "B2", "Relative Activity of GLA Variants After Challenge at pH 3.7": "+ (0.5 to 1.5 relative activity over Rd4BB (SEQ ID NO: 15))"}
{"molecule": "B3", "Relative Activity of GLA Variants After Challenge at pH 3.7": "++ (>1.5 to 2.5 relative activity over Rd4BB (SEQ ID NO: 15))"}
{"molecule": "B4", "Relative Activity of GLA Variants After Challenge at pH 3.7": "++ (>1.5 to 2.5 relative activity over Rd4BB (SEQ ID NO: 15))"}
{"molecule": "B5", "Relative Activity of GLA Variants After Challenge at pH 3.7": "+ (0.5 to 1.5 relative activity over Rd4BB (SEQ ID NO: 15))"}
{"molecule": "B6", "Relative Activity of GLA Variants After Challenge at pH 3.7": "+ (0.5 to 1.5 relative activity over Rd4BB (SEQ ID NO: 15))"}
{"molecule": "B7", "Relative Activity of GLA Variants After Challenge at pH 3.7": "− (<0.5 relative activity over Rd4BB (SEQ ID NO: 15))"}
{"molecule": "B8", "Relative Activity of GLA Variants After Challenge at pH 3.7": "++ (>1.5 to 2.5 relative activity over Rd4BB (SEQ ID NO: 15))"}
{"molecule": "B9", "Relative Activity of GLA Variants After Challenge at pH 3.7": "++ (>1.5 to 2.5 relative activity over Rd4BB (SEQ ID NO: 15))"}
{"molecule": "B10", "Relative Activity of GLA Variants After Challenge at pH 3.7": "+ (0.5 to 1.5 relative activity over Rd4BB (SEQ ID NO: 15))"}
{"molecule": "B11", "Relative Activity of GLA Variants After Challenge at pH 3.7": "− (<0.5 relative activity over Rd4BB (SEQ ID NO: 15))"}
{"molecule": "B12", "Relative Activity of GLA Variants After Challenge at pH 3.7": "− (<0.5 relative activity over Rd4BB (SEQ ID NO: 15))"}
{"molecule": "B13", "Relative Activity of GLA Variants After Challenge at pH 3.7": "++ (>1.5 to 2.5 relative activity over Rd4BB (SEQ ID NO: 15))"}
{"molecule": "B14", "Relative Activity of GLA Variants After Challenge at pH 3.7": "++ (>1.5 to 2.5 relative activity over Rd4BB (SEQ ID NO: 15))"}
{"molecule": "B15", "Relative Activity of GLA Variants After Challenge at pH 3.7": "+ (0.5 to 1.5 relative activity over Rd4BB (SEQ ID NO: 15))"}
{"test": "HTP-analysis of yeast culture supernatants, no challenge (MUGal hydrolysis)", "assay_type": "biochemical", "conditions": "activity of the variant/activity of Rd4BB (SEQ ID NO: 15)", "method_in_brief": "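GLA variants expressed in yeast INVSc1, secreted into SD-Ura broth over 66-84 h at 30° C; clarified supernatants tested without challenge. Supernatant mixed with McIlvaine buffer pH 4.8 and 2 mM MUGal (citrate/KCl, pH 4.6), 37° C for 30-180 min, carbonate-quenched, fluorescence Ex 355/Em 448 nm.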"}
{"molecule": "B1", "Relative Activity of GLA Variants After No Challenge (NC)": "+ (0.5 to 1.5 relative activity over Rd4BB (SEQ ID NO: 15))"}
{"molecule": "B2", "Relative Activity of GLA Variants After No Challenge (NC)": "+ (0.5 to 1.5 relative activity over Rd4BB (SEQ ID NO: 15))"}
{"molecule": "B3", "Relative Activity of GLA Variants After No Challenge (NC)": "+ (0.5 to 1.5 relative activity over Rd4BB (SEQ ID NO: 15))"}
{"molecule": "B4", "Relative Activity of GLA Variants After No Challenge (NC)": "+ (0.5 to 1.5 relative activity over Rd4BB (SEQ ID NO: 15))"}
{"molecule": "B5", "Relative Activity of GLA Variants After No Challenge (NC)": "+ (0.5 to 1.5 relative activity over Rd4BB (SEQ ID NO: 15))"}
{"molecule": "B6", "Relative Activity of GLA Variants After No Challenge (NC)": "+ (0.5 to 1.5 relative activity over Rd4BB (SEQ ID NO: 15))"}
{"molecule": "B7", "Relative Activity of GLA Variants After No Challenge (NC)": "+ (0.5 to 1.5 relative activity over Rd4BB (SEQ ID NO: 15))"}
{"molecule": "B8", "Relative Activity of GLA Variants After No Challenge (NC)": "+ (0.5 to 1.5 relative activity over Rd4BB (SEQ ID NO: 15))"}
{"molecule": "B9", "Relative Activity of GLA Variants After No Challenge (NC)": "+ (0.5 to 1.5 relative activity over Rd4BB (SEQ ID NO: 15))"}
{"molecule": "B10", "Relative Activity of GLA Variants After No Challenge (NC)": "+ (0.5 to 1.5 relative activity over Rd4BB (SEQ ID NO: 15))"}
{"molecule": "B11", "Relative Activity of GLA Variants After No Challenge (NC)": "+ (0.5 to 1.5 relative activity over Rd4BB (SEQ ID NO: 15))"}
{"molecule": "B12", "Relative Activity of GLA Variants After No Challenge (NC)": "+ (0.5 to 1.5 relative activity over Rd4BB (SEQ ID NO: 15))"}
{"molecule": "B13", "Relative Activity of GLA Variants After No Challenge (NC)": "+ (0.5 to 1.5 relative activity over Rd4BB (SEQ ID NO: 15))"}
{"molecule": "B14", "Relative Activity of GLA Variants After No Challenge (NC)": "+ (0.5 to 1.5 relative activity over Rd4BB (SEQ ID NO: 15))"}
{"molecule": "B15", "Relative Activity of GLA Variants After No Challenge (NC)": "+ (0.5 to 1.5 relative activity over Rd4BB (SEQ ID NO: 15))"}
